Publication PMC12732451, “Functional Coupling of Calcium-Sensing Receptor and Polycystin-2 in Renal Epithelial Cells: Physiological Role and Potential Therapeutic Target in Polycystic Kidney Disease” (International Journal of Molecular Sciences, 2025)

Target: T1, Polycystin 2 (PC2), human, endogenous in PTEC (human (endogenous in PTEC), UniProt Q13563 1-968)
T1 construct: Polycystin 2 (PC2), encoded by the PKD2 gene, human, endogenous in PTEC; no construct, no residues stated; Endogenous protein, immunoprecipitated with anti-Polycystin-2 antibodies (Santa Cruz)
T1 sequence (looked up): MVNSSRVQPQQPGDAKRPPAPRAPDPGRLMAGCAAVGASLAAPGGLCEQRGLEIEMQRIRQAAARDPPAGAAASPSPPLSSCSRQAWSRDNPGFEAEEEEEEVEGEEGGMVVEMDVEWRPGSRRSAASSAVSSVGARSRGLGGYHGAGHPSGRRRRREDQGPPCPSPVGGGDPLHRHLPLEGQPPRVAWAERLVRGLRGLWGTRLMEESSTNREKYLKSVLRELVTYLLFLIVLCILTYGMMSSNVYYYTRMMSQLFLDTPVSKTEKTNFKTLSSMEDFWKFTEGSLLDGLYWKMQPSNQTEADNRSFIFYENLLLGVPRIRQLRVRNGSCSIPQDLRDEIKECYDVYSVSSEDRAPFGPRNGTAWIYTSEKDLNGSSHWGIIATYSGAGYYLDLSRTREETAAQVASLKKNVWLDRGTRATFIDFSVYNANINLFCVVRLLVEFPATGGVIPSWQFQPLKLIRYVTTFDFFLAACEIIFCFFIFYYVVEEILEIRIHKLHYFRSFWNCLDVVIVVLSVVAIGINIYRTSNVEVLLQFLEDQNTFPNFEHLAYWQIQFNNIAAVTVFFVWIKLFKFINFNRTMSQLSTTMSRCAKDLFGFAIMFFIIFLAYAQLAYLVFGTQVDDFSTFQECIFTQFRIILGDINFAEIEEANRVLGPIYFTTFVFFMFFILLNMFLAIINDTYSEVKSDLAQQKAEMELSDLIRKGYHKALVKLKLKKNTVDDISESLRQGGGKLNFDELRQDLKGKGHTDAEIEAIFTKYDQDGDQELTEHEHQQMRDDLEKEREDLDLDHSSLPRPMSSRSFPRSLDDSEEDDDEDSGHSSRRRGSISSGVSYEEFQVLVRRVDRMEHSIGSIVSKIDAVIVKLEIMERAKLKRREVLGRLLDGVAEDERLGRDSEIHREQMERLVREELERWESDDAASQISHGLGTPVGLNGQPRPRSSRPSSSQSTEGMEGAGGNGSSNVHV
Experiment: co-IP; PTEC wt and PC1KD (PKD1 knocked down) lysates (1% Triton X-100, 150 mM NaCl, 25 mM Hepes pH 7.4); anti-PC2 antibodies coupled to protein A-Sepharose, overnight; immunoblot with anti-CaSR and anti-PC2
Details: partners not purified

B1: Calcium Sensing Receptor (CaSR), human, endogenous in PTEC (receptor, human (endogenous in PTEC), UniProt P41180 20-1078, looked up)
chain: YGPDQRAQKKGDIILGGLFPIHFGVAAKDQDLKSRPESVECIRYNFRGFRWLQAMIFAIEEINSSPALLPNLTLGYRIFDTCNTVSKALEATLSFVAQNKIDSLNLDEFCNCSEHIPSTIAVVGATGSGVSTAVANLLGLFYIPQVSYASSSRLLSNKNQFKSFLRTIPNDEHQATAMADIIEYFRWNWVGTIAADDDYGRPGIEKFREEAEERDICIDFSELISQYSDEEEIQHVVEVIQNSTAKVIVVFSSGPDLEPLIKEIVRRNITGKIWLASEAWASSSLIAMPQYFHVVGGTIGFALKAGQIPGFREFLKKVHPRKSVHNGFAKEFWEETFNCHLQEGAKGPLPVDTFLRGHEESGDRFSNSSTAFRPLCTGDENISSVETPYIDYTHLRISYNVYLAVYSIAHALQDIYTCLPGRGLFTNGSCADIKKVEAWQVLKHLRHLNFTNNMGEQVTFDECGDLVGNYSIINWHLSPEDGSIVFKEVGYYNVYAKKGERLFINEEKILWSGFSREVPFSNCSRDCLAGTRKGIIEGEPTCCFECVECPDGEYSDETDASACNKCPDDFWSNENHTSCIAKEIEFLSWTEPFGIALTLFAVLGIFLTAFVLGVFIKFRNTPIVKATNRELSYLLLFSLLCCFSSSLFFIGEPQDWTCRLRQPAFGISFVLCISCILVKTNRVLLVFEAKIPTSFHRKWWGLNLQFLLVFLCTFMQIVICVIWLYTAPPSSYRNQELEDEIIFITCHEGSLMALGFLIGYTCLLAAICFFFAFKSRKLPENFNEAKFITFSMLIFFIVWISFIPAYASTYGKFVSAVEVIAILAASFGLLACIFFNKIYIILFKPSRNTIEEVRCSTAAHAFKVAARATLRRSNVSRKRSSSLGGSTGSTPSSSISSKSNSEDPFPQPERQKQQQPLALTQQEQQQQPLTLPQQQRSQQQPRCKQKVIFGSGTVTFSLSFDEPQKNAMAHRNSTHQNSLEAQKSSDTLTRHEPLLPLQCGETDLDLTVQETGLQGPVGGDQRPEVEDPEELSPALVVSSSQSFVISGGGSTVTENVVNS
notes: Calcium sensing receptor (CaSR), human, endogenous in PTEC; no construct, no residues stated; Endogenous protein, detected with a monoclonal anti-CaSR antibody (Sigma C0493); also called extracellular calcium sensing receptor
In the case of B1, the “amount of CaSR immunoprecipitated with PC2 in PC1KD cells relative to wt (ratio CaSR/PC2)” value is reported as 1.34 fold (wt = 1).
